This note sets out measurements from article PMC3804602, “Nanobody Mediated Crystallization of an Archeal Mechanosensitive Channel” (PLoS ONE, 2013).

The target in test [1] is T1 mechanosensitive channel from Thermoplasma volcanium (Thermoplasma volcanium). The test is described as follows: cross-linking; chemical crosslinking; the sample of T1 is not told (only T2 is shown, Figure 2 D).
Test [2] deals with His-tagged T2 mechanosensitive channel from Thermoplasma volcanium (Thermoplasma volcanium). The test is described as follows: cross-linking; chemical crosslinking of the T2 channel in crude membranes; ladder of five bands.
Test [3] shares this target. The test is described as follows: far-Western, overlay or dot blot; channel samples run on SDS-PAGE and blotted on nitrocellulose (His-tagged T1 0.1 µg, His-tagged T2 0.1 µg, tag free T2 0.01 and 0.1 µg); strips incubated with nanobody at 1 µg/ml for 1 hour, bound His-tagged nanobody detected with HisProbe-HRP; intensity ratio of lane 2 of the sample strip to the reference strip.

Test [4] has as its target T1, T2 mechanosensitive channel from Thermoplasma volcanium, tag free (Thermoplasma volcanium).
T1 construct: TVN0821, gene amplified from genomic DNA (DSM 4299 [GSS1*]); 297 amino acids per monomer; Cloned into pNIC28-Bsa4 (TEV site) and pET46 (Enterokinase site); In detergent (0.03 % DDM); also called T2 channel; tag free T2-channel; source: E. coli C43(DE3), purified (DDM solubilised, IMAC, tag cleavage, second IMAC, gel filtration); not shown: His-tag, N-terminal, cleaved
T1 chain: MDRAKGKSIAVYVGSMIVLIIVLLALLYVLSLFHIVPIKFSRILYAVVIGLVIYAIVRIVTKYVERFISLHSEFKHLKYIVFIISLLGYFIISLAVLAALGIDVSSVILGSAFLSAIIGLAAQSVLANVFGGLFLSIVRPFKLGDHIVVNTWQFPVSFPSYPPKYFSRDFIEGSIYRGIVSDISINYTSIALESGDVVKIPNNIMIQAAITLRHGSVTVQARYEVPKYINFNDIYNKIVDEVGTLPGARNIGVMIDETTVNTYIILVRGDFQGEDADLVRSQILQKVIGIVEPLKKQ
The test can be described thus: SPR; BIAcore 3000, 25 °C, 20 mM sodium phosphate pH 7.4, 150 mM NaCl, 0.03 % DDM; T2 channel amine-coupled on CM5 (1500 - 2000 RU); nanobodies 0.35 - 86.1 nM injected in triplicates; global fit to a simple bimolecular model, KD = kd/ka. The settings on record: both partners purified.

For the molecule “T1 mechanosensitive channel from Thermoplasma volcanium (natural protein)”, in test [1], the stoichiometry N – broadly, a count of units in the complex or per binding partner – stood at 5.
“His-tagged T2 mechanosensitive channel from Thermoplasma volcanium (natural protein)” came in with a stoichiometry N in test [2] of 5.

B1: nanobody 16 (VHH)
VHH: QVQLQESGGGLVQPGGSLTLSCAASGSPFSFGAMGWYRQAPGKQRELVAIITSGGSTNYADSVKGRFTVSRDNAKNTVYLQMNSLKPEDTAVYYCYHQTAPVADVTWGQGTQVTVSS
notes: pHEN6 vector; also called Nb 16; CA-number 3398; source: E. coli WK6 periplasm, purified (IMAC, gel filtration); not shown: His-tag, C-terminal, kept
Take B1: the ratio of WB intensities in test [3] was 1.98. Moreover, in test [4], the dissociation constant (Kd) (in general, the free concentration of one partner at which half of the binding sites on the other are occupied at equilibrium, for simple one-to-one binding) was found to be 7.4 nM; the koff (usually the rate constant with which the complex falls apart) came to 0.0055 s⁻¹; the on-rate (kon) (as a rule, the rate constant with which the complex forms) came out at 750000 M⁻¹ s⁻¹.
